Assay results from patent US20240398911A1.

Experiments:
[1] = molecular target: SARS-CoV2 RBD-8h (Delta) (SARS-CoV-2 (Delta)) (UniProt P0DTC2); assay: BLI, IgG protein immobilized, monomeric RBD-8h analyte
[2] = molecular target: SARS-CoV2 RBD-8h (Gamma) (SARS-CoV-2 (Gamma)) (UniProt P0DTC2); assay: as above

In the case of VIR-7831 (sotrovimab) (antibody), the Kd [1] is reported as less than 100 pM, the koff [1] is reported as less than 1e-07 s⁻¹ and the kon [1] is reported as 100000 M⁻¹ s⁻¹. It also gave a kon [2] of 97000 M⁻¹ s⁻¹.
